Data: patent US12084521B2, “TLR9 inhibitors to suppress inflammatory response to pathogens” (University Of Maryland, Baltimore, priority 2018, dated 2024)
No end group written: not given here.

What was measured:
recombinant TIRAP = recombinant TIRAP (Homo sapiens, UniProt P58753); details: cited from earlier work
TLR9 signaling = assay: Plasma cytokines after i.p. ODN 1668 in mice; type: in vivo, C57BL/6J mice; details: peptide 200 nmol/mouse i.p.; ODN 1668 7.86 nmol/mouse
Method: (§1) Systemic cytokine levels were measured in plasma samples obtained 1, 3, and 5 hours after intraperitoneal (i.p.) administration of 7.86 nmol (50 μg) of ODN 1668 or 67 nmol of Pam3C per mouse, using ELISA kits from Biolegend™ Inc. CPDP were dissolved in PBS and administered i.p. at the dose of 200 nmol per mouse 1 hour before administration of a TLR agonist. For survival experiments, mice were sensitized to TLR9 agonists by i.p. injection of 20 mg of D-Gal 30 minutes before administration of peptides or PBS. ODN 1668 was used at the doses of 3.93 or 7.86 nmol/mouse (25 or 50 μg/mouse) 1.5 hours after D-Gal. Animal survival was monitored for 50 hours. All agents were administered i.p. in 500 μL volume of PBS. Animals had free access to food and water during the observation period. All animal experiments were conducted in accordance with the national guidelines for the care and use of laboratory animals under a protocol that was approved by the UMB IACUC.
To test the in vivo efficacy and specificity of 9R34-ΔN, C57BL/6J mice were mock-treated or treated i.p. with a single dose of inhibitory or control peptide (200 nmol/mouse) and challenged with TLR9 agonist ODN 1668 (7.86 nmol/mouse) or TLR2/1 agonist Pam3C (67 nmol/mouse) 1 hour later. Plasma concentrations of TNFα and IL-12-p40 were measured 1, 3, and 5 hours after the challenge. Both TLR agonists increased concentrations of TNFα and IL-12-p40 in 1 hour samples from below the limit of detection to about 1.2 and about 6 ng/mL in the case of ODN 1668, and to 0.12 ng/mL and 1 ng/mL after treatment with Pam3C.
Plasma TNFα and IL-12-p40 levels following intraperitioneal administration of ODN 1668 to C57Bl/6J mice in peptide-pretreated and control mice are shown in FIG. 14A and FIG. 14B. Data shown in these figures represent the means±SEM obtained in at least three independent experiments. The statistical significance of changes in cytokine concentrations was determined by a two-way ANOVA test; *p<0.001.

TLR2/1 signaling = assay: Plasma cytokines after i.p. Pam3C in mice; type: in vivo, C57BL/6J mice; details: peptide 200 nmol/mouse i.p.; Pam3C 67 nmol/mouse
Method: as §1, with “Animals had free access to food and water during the observation period. All animal experiments were conducted in accordance with the national guidelines for the care and use of laboratory animals under a protocol that was approved by the UMB IACUC.” left out
To test the in vivo efficacy and specificity of 9R34-ΔN, C57BL/6J mice were mock-treated or treated i.p. with a single dose of inhibitory or control peptide (200 nmol/mouse) and challenged with TLR9 agonist ODN 1668 (7.86 nmol/mouse) or TLR2/1 agonist Pam3C (67 nmol/mouse) 1 hour later. Plasma concentrations of TNFα and IL-12-p40 were measured 1, 3, and 5 hours after the challenge. […]
Plasma TNFα and IL-12-p40 levels following intraperitioneal administration of ODN 1668 to C57Bl/6J mice in peptide-pretreated and control mice are shown in FIG. 14A and FIG. 14B. […] The statistical significance of changes in cytokine concentrations was determined by a two-way ANOVA test; *p<0.001.

TIRAP TIR = target: T1, TIRAP TIR (Homo sapiens, UniProt P58753); assay: FLIM/FRET binding of Cy3-labeled peptides to Cer-fused TIR in HeLa cells; details: HeLa cells, Cy3-peptide 2.5-40 μM, 1 hour
T1 construct: fused with TLR9 TIR or TIRAP TIR; expressed in transfected cells; host or cells: HeLa
Method: Three million HeLa cells were transfected with 10 μg of MyD88-Cer, TIRAP-Cer, TRAM-Cer, TLR2-Cer, TLR4 TIR-Cer, or TLR9 TIR-Cer expression vectors using a Lipofectamine™ 3000 kit from Invitrogen™ per manufacturer recommendations. Twenty four hours later, the transfected cells were trypsinized and reseeded into a 50-well gasket (Grace Bio-Labs™) mounted on a microscope slide at the density 8000 cells/well. The next day, cells were treated with Cy3-9R34-ΔN or Cy3-9R11 for 1 hour and fixed on the slides with a 4% paraformaldehyde solution.
Fluorescence lifetime images were acquired using the Alba V FLIM™ system (ISS™ Inc.). The excitation was from the laser diode 443 nm coupled with scanning module (ISS™) through multiband dichroic filter 443/532/635 nm (Semrock™) to Olympus™ IX71S microscope with objective 20×0.45 NA (UPlan™ Olympus™). Emission was observed through bandpass filter […] (Chroma Technology™) and detected by a photomultiplier H7422-40 (Hamamatsu™). Measurements were performed using frequency domain (FD) and time domain (TD) modalities of the FLIM system. FD FLIM data were acquired using ISS™ A320 FastFLIM™ electronics with n harmonics of 20 MHz laser repetition frequency (n=1, 2, 3, 4, 5, 6). FastFLIM™ was calibrated using fluorescein in buffer pH 8.0 as a standard with a single lifetime of 4.0 ns. TD FLIM images were acquired using time-correlated single photon counting TCSPC™ Model SPC-830 (Becker & Hick™).
Images (256×256 pixels) were acquired with resolution varied in the range ˜0.4-0.7 μm/pixel, using scan speed 1 ms/pixel. To avoid pixel intensity saturation in bright cells and to improve the signal from dim cells, two to five overlapping scans were used for acquisition of FLIM images. Image sizes varied from 100×100 to 180×180 μm to accommodate multiple cells. FLIM data were analyzed with VistaVision™ Suite software (Vista™ v.212 from ISST). Fluorescence lifetime was determined using single- and bi-exponential intensity decay models. Average lifetime images were generated based on pixel-by-pixel analysis using the combined signal of two neighboring pixels in all directions (bin 2=25 pixels). The binning was used to improve the signal for analysis. The average lifetimes were calculated from fitted parameters, decay times τi and amplitudes αi, τa=Σαiτi. The bi-exponential fitting procedure was performed with one lifetime component fixed at 3.1 nsec, which was found common for most images. To calculate the effective FRET efficiency (E), average lifetimes of the donor only images (τD) and donor-acceptor images (τDA) were used, E=1−τDA/τD.
To identify potential binding partners of inhibitory peptides a FRET approach coupled with Fluorescence Lifetime Imaging Microscopy (FLIM) was used. HeLa cells were transiently transfected with an expression vector that encodes a TIR domain fused with Cerulean fluorescent protein (Cer). Cells were treated with various concentrations of a Cy3-labeled inhibitory peptide 48 hours after transfection. Cy3 is a suitable FRET acceptor for Cer fluorescence. A direct molecular interaction of a Cy3-labeled peptide with Cer-fused TIR domain should quench Cer fluorescence, leading to a decreased fluorescence lifetime.
TLR9, MyD88, and TIRAP were selected as potential primary binding partners for Cy3-9R34-ΔN and Cy3-9R11. Cer-fused TLR2 and TLR4 TIR domains, and Cer not fused to a TIR, were used as controls. […] Therefore, the TIRAP-Cer with Cy3-2R9 was used as a positive binding control. Binding of Cy3-labeled CPDPs to Cerulean- (Cer-) labeled TIR domains was tested as follows. Fluorescence Lifetime IMages (FLIM) were made of HeLa cells expressing Cer not fused with a TIR domain (upper row) or fused with TLR9 TIR or TIRAP TIR (middle and bottom rows) and treated with a Cy3-labeled decoy peptide for 1 hour.
A progressive shift of average fluorescence lifetime towards lower values observed with increasing peptide concentrations indicates the binding between donor and acceptor moieties. […]

Chain of recombinant TIRAP (P58753 whole entry): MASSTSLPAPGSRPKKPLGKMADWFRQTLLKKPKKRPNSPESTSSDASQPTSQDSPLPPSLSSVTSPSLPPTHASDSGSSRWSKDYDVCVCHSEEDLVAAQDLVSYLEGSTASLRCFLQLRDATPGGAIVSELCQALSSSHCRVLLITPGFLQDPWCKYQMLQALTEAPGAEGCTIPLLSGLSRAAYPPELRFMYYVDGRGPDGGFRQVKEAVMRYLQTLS
T1 sequence (P58753 84-213 limits assumed): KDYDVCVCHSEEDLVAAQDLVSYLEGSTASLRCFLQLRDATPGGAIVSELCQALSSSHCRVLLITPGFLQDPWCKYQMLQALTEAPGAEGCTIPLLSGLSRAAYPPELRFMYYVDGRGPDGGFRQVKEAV

PQRFCKLRKIMNT (also: Cy3 label, position not given here) [Peptide 2R9, reference compound]
affinity for recombinant TIRAP (recombinant TIRAP): nanomolar | ODN 1668-induced plasma cytokine levels (TNFα, IL-12-p40) (TLR9 signaling): suppressed cytokine induction | Pam3C-induced plasma cytokine levels (TNFα, IL-12-p40) (TLR2/1 signaling): suppressed cytokine induction | quenching of TIRAP-Cer fluorescence (TIRAP TIR): slightly higher than for the TLR9-9R34-ΔN pair
